Experimental data as given in PMC3135652 (Journal of immunology (Baltimore, Md. : 1950), 2009).

Molecular target: T1, Recombinant truncated p115 (p115 702-962), carboxy-terminal histidine tag (human, UniProt O60763 702-962)
T1 sequence (looked up): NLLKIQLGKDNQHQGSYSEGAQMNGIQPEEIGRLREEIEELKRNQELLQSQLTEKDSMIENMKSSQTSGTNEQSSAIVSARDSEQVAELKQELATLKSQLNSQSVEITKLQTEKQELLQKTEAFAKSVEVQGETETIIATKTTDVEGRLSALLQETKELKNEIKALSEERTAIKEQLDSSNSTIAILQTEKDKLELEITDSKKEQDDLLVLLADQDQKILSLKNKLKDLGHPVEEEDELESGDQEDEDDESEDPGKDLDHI
Test: ELISA

B1: Biotinylated recombinant human MIF (natural protein, UniProt P14174 1-115, looked up)
chain: MPMFIVNTNVPRASVPDGFLSELTQQLAQATGKPPQYIAVHVVPDQLMAFGGSSEPCALCSLHSIGKIGGAQNRSYSKLLCGLLAERLRISPDRVYINYYDMNAANVGWNNSTFA
modifications: biotin (Biotin Protein Labeling Kit, Roche)
B1: binds.
